Tests used:
[1] = target: K1058, paralogous MurNAc kinase of Tannerella forsythia (Tannerella forsythia); test: SEC; SD200 16/60 column, 4 °C; MurK in 200 mM NaCl, 50 mM MES, pH 6; K1058 in 750 mM NaCl, 25 mM Tris-HCl, pH 8.5; apparent mass about 60 kDa against 32.4 and 32.3 kDa for the monomers
[2] = target: Tannerella forsythia ATP-dependent murein sugar kinase (MurK) (Tannerella forsythia); test: as above

| stoichiometry N [1] | stoichiometry N [2] | Substance |
| --- | --- | --- |
| 2 |  | K1058, paralogous MurNAc kinase of Tannerella forsythia (enzyme) |
|  | 2 | Tannerella forsythia ATP-dependent murein sugar kinase (MurK) (enzyme) |

— publication PMC10465942, “N-acetylmuramic acid recognition by MurK kinase from the MurNAc auxotrophic oral pathogen Tannerella forsythia” (The Journal of Biological Chemistry, 2023)
